Measured values: US12674174B2, “Protoporphyrinogen oxidase (PPO) resistance plant” (PLANTARC BIO LTD., priority 2022, dated 2026)

How the values were obtained:
Arabidopsis plants = details: yes/no; for High concentration herbicide tolerance: Table 1; for Herbicide tolerance: Table 2, FIG. 6C legend: Star 1.25 kg/hectare
[1] = tested on: transgenic Arabidopsis plants; format: in vivo; details: for level of resistance against Aurora (in words): Aurora 0.01% to 0.5%, compared to control plants; for level of resistance to Strike, more tolerant to treatment as compared to control plants: Strike 0.01% to 1%, 5 orders of magnitude
Description: (SEQ ID NO: 8 was cloned from SEQ ID NO: 1, SEQ ID NO: 9 was cloned from SEQ ID NO: 2, SEQ ID NO: 10 was cloned from SEQ ID NO: 3, SEQ ID NO: 11 was cloned from SEQ ID NO: 4, SEQ ID NO: 12 was cloned from SEQ ID NO: 5, SEQ ID NO: 13 was cloned from SEQ ID NO: 6 SEQ ID NO: 14 was cloned from SEQ ID NO: 7). […] FIG. 1B summarizes the results of the three experiments described hereinabove.

B1: SEQ ID NO: 98: PPO from Hesseltinella sp. Protein. (protein, listed as Hesseltinella sp.)
chain: MPRSIVVLGGGISGLSAAYYLSRLVPQAHIRLIESNKRAGGFIKTQQVNDHLIFEAGPRTLRPHGTSGTVLLDMIKDLDLSPLLVNIPKSHPSAQHRYIEYHGQINQLPSGLADMLLHSPPIMDSVITAGMREPFLARASTTKDESLYNFMERRFNEHTALNLMGAMAHGIYAGDAKQLSVHSTFPILAACEQEYGSVVLGMLSGKLSVESPRERQLADACRAKDPEWFKQMQQSSVLGFLPGLGALPSRLTQFLSSQPNVSMQLGETVSRLDGQSSHQIEITTSQGQIYHADHIVSTLPSHALARISMPTTTSLPHLTHNPSADVALVNLAYEKCKVKPGLDGFGFLTPHADTMPPSQFPGLLGMIFDSNSLGVQDQDSNMVRFTAMIGGADWNLAFGSLHDNDAISSKALTMATAALSKYLEIHESPAHYHCRILRQCIPQYLVGHRQRMNELHAALQHSFGHTMSVTGASYLGVSVPDCIKHSRMLIEDLVDTGALGSKQAVITGLEKVTLPMYYKL
Question: Which results are given for B1?
Answer: High concentration herbicide tolerance (Arabidopsis plants): yes; Herbicide tolerance (Arabidopsis plants): yes

B2: SEQ ID NO: 102: Glycine max protoporphyrinogen oxidase 1, chloroplastic, XP_003536005.1 (protein)
chain: MVSVFNEILFPPNQTLLRPSLHSPTSFFTSPTRKFPRSRPNPILRCSIAEESTASPPKTRDSAPVDCVVVGGGVSGLCIAQALATKHANANVVVTEARDRVGGNITTMERDGYLWEEGPNSFQPSDPMLTMVVDSGLKDELVLGDPDAPRFVLWNRKLRPVPGKLTDLPFFDLMSIGGKIRAGFGALGIRPPPPGHEESVEEFVRRNLGDEVFERLIEPFCSGVYAGDPSKLSMKAAFGKVWKLEKNGGSIIGGTFKAIQERNGASKPPRDPRLPKPKGQTVGSFRKGLTMLPDAISARLGNKVKLSWKLSSISKLDSGEYSLTYETPEGVVSLQCKTVVLTIPSYVASTLLRPLSAAAADALSKFYYPPVAAVSISYPKEAIRSECLIDGELKGFGQLHPRSQGVETLGTIYSSSLFPNRAPPGRVLLLNYIGGATNTGILSKTDSELVETVDRDLRKILINPNAQDPFVVGVRLWPQAIPQFLVGHLDLLDVAKASIRNTGFEGLFLGGNYVSGVALGRCVEGAYEVAAEVNDFLTNRVYK
modifications: Glycine max
Question: For B2, which “High concentration herbicide tolerance” value (Arabidopsis plants) is on record?
Answer: no

B3: SEQ ID NO: 96: PPO from Trichoderma sp. Protein. (protein, listed as Trichoderma sp.)
chain: MSLKRADGAAMAFLRLSSAVCGRRRIPAGGLPADANVAVLGGGLTGLTTAYYLAKWLPPTAKITLLEASDRLGGWIKTDRVPVKVGGVEGVVSFERGPRSLSSLNKSTWRFDDLVLWDLALDLGLRVVSPPDKPRYIYYPDHLVPLPPHTSLAAFASEPLVLESLWAGFGYVLRRLFSRKAGVPVQDLSIADWIQHITGSRAVAENLASAMVHGIYGGDIYTLSARSVLDRFYWVHYLPALGPDVRHMALSEQVFMEAMGQDPLIRKLAQQPRGALLNFGEAGMETLPIALADALNGQANVEVKLGAKVTGLEYESETEMMKITTTGQDDSPAEKYHKVISTLPSQHLARITDTLPSLASSHAVSIMTVNIWYPQTNLKPPGFGYLIPLSVPAEQNPERALGVFFDSDVGVRGPDEPAGTKLFVLMGGHYYDKKQPGASVRVPSEEEAIEQAKRVLERHLGIPQSTPCFAMARLASECIPQYVCGHQDTMAAADEDLRDSFDGRLAVAGGSYTKIGAMGALRNGYDIANTVVREDWLTTGLEQLEFPTQFCGVPTERIPVRRFSRR
Question: For B3, which “High concentration herbicide tolerance” value (Arabidopsis plants) is on record?
Answer: yes

Question: What about the Herbicide tolerance (Arabidopsis plants) of the same molecule?
Answer: yes

B4: SEQ ID NO: 1: PPO from Aspergillus sp. Protein. (protein, listed as Aspergillus sp.)
chain: MRLPCASSRVFRQVRAPLALLSRGQRHAVHTKQFDAAVIGGGITGLTAAYQLSRDPSCSKVTLYEKSPHLGGWLSSEQIPVPGGHVVFEYGPRTLRTSSPSCLPMMDLIMNLDLLDDVLICDKKSPAAQNRYIYYPDHLVRLPFPPTEGLLKTAWTLLMEPLFETFLYSAIFEKPKRAENTHILSRDESVADFVSRRFSPKISENLASAVMAGIFAGDVNRLSAEMAIGYVRELEKRYGSIVDGMMTQRASEMRAMPMDELLALESVAVPSHSDDRYWKSLRAVVSDASVLTLKNGLGQLTDAMAAQLRSSRNVEVVTGTEVTSLSQNPKTQDLTIGFGKNESKTHNRVIATHAPSSLARQIQNTKVGVVPSDTIRDLGQNNYAVTVMVVNLYYEDPDLVPVEGFGYLLPSSVPFEQNPERALGVIFGSQSSEGQDTAPGTKLTVMMGGHLWDGWSESDYPDPDKAIEMAQALLHRHLGIKTAPSVARARLLRDAIPQYTVGHLSRMKELSHSVRSDFHKRLTLAGAWYGTVGIGVVDCIRQGYLASSYGVGSKKLGPGNSRRPWTKHDFHNWELEGGIATSPVRLDNVHVTERQHY
Question: Which “level of resistance against Aurora (in words)” value [1] does the source give for B4 here?
Answer: very high levels of resistance

Question: What about the “level of resistance to Strike, more tolerant to treatment as compared to control plants” value [1] of the same molecule?
Answer: about 10^5

B5: SEQ ID NO: 97: PPO from Rhodotorula sp. Protein. (protein, listed as Rhodotorula sp.)
chain: MQSYSGNALARQSVPIKPIRRRTPRLNLIRSLPSPRFFVTSPSSSQRHDHPYHTLAILGGGLSGLSTAHYFLRTLSPSLRDQTRIVVLEKEERVGGWCRAVRIQNGRRLGENEKPEGTEDLLVFETGPRSVRPVGLLGWLTIEMAHELGLTPSIVTVPKSAPSARNRFIYTGHRSSTSISPILKAALPTIPSALLEPFRPRSPLHDDPSGLADESVDSFIARRFGRRLADELASAGIHGIYAGDTRRLSVRAVLPALWELEKEWGSVVIGALFGSFARRRGWKKNSPWRMRQQAETEEMERVKERIRAKGGEALVEDMEKASVWGVKGGLQVVTETLREKLEAEGVEFWMGEKGKVEHVEKVDGGWQIRTSSGALDASQLVTTIPQLLPSSLAPPALPATTVSVVNLAFEKPAPGSPPLHPAGFGYLIPRTVPSSLNPHRALGVIFDSDVMPDVDSSSSLGLTKLSLLLGGSYWLDRHPPPQPSHDDLVNAALETLRLHFPDRPIPKPVHAFTHTHVNCIPQVPPGFMPSFRAFGDRLREAGNVAVVGGGFAAVGVNGCVKAAWEVGSAMAQAVNAQAGGKEGEGEEKVREAVARTVKTGTEMWEL
Question: Which “High concentration herbicide tolerance” value (Arabidopsis plants) does the source give for B5 here?
Answer: yes

Question: What about the Herbicide tolerance (Arabidopsis plants) of the same molecule?
Answer: yes

B6: SEQ ID NO: 100: PPO from Rhizophagus sp. Protein. (protein, listed as Rhizophagus sp.)
chain: MSSPNNFVILGGGISGLSAAWYLSRYAPSTTKILVLEGSNRFGGWIKSKRVGQHKILFEQGPRTLRPNGIGGSVVLDMVNRLNLIPSLHAVTKDDDAAKDRFIYYPDKIVKLPGTSLLSSMKSVFTNNFLLKSIPSILFEPFIKPARNYHDETIHEFISRRFSKSISDILISALIHGIYAGDINKLSIRSTFTRLYNLEQKYGSVIKGLLMSNKEEFLSQQDKYLLKIINDENKDFLSIFKNVSLYSFKDGIEQLSSAIVNDLKNKENVQLKTNNQVTKLEFGENVKIFTNEAVYEADHVISALPSRALYNILPEKDVLPHLNYNPSVSVATINLAYAHPKILPVKGFGYLIPQSTPHNPYHVLGVVFDSNAMPLQDEPSRTYTKLTIMMGGHYFNSISEKDDFPKKEILLQQSIEILEKHLGIYSTPLYYLVDIQKNCIPQYYVGHYSRLKELHYAIKNHYANRLSVTGASYWGISINDCVLNSAKLVLNILSNSPNVVTGLEEVEIQNEHYL
Question: With B6 as the molecule, how does the Herbicide tolerance (Arabidopsis plants) read?
Answer: no

B7: SEQ ID NO: 8: PPO from Aspergillus sp. fused to cTP. Chimeric Protein; cloned from SEQ ID NO: 1 (protein)
chain: MELSLLRPTTQSLLPSFSKPNLRLNVYKPLRLRCSVAGGMRLPCASSRVFRQVRAPLALLSRGQRHAVHTKQFDAAVIGGGITGLTAAYQLSRDPSCSKVTLYEKSPHLGGWLSSEQIPVPGGHVVFEYGPRTLRTSSPSCLPMMDLIMNLDLLDDVLICDKKSPAAQNRYIYYPDHLVRLPFPPTEGLLKTAWTLLMEPLFETFLYSAIFEKPKRAENTHILSRDESVADFVSRRFSPKISENLASAVMAGIFAGDVNRLSAEMAIGYVRELEKRYGSIVDGMMTQRASEMRAMPMDELLALESVAVPSHSDDRYWKSLRAVVSDASVLTLKNGLGQLTDAMAAQLRSSRNVEVVTGTEVTSLSQNPKTQDLTIGFGKNESKTHNRVIATHAPSSLARQIQNTKVGVVPSDTIRDLGQNNYAVTVMVVNLYYEDPDLVPVEGFGYLLPSSVPFEQNPERALGVIFGSQSSEGQDTAPGTKLTVMMGGHLWDGWSESDYPDPDKAIEMAQALLHRHLGIKTAPSVARARLLRDAIPQYTVGHLSRMKELSHSVRSDFHKRLTLAGAWYGTVGIGVVDCIRQGYLASSYGVGSKKLGPGNSRRPWTKHDFHNWELEGGIATSPVRLDNVHVTERQHY
Question: For B7, which “level of resistance against Aurora (in words)” value [1] is on record?
Answer: very high levels of resistance

Question: What about the “level of resistance to Strike, more tolerant to treatment as compared to control plants” value [1] of the same molecule?
Answer: about 10^5

B8: SEQ ID NO: 101: 4IVO_B. Structure of human protoporphyrinogen IX oxidase(R59Q) [Homo sapiens] (protein, listed as Homo sapiens)
chain: MGRTVVVLGGGISGLAASYHLSRAPCPPKVVLVESSERLGGWIRSVRGPNGAIFELGPQGIRPAGALGARTLLLVSELGLDSEVLPVRGDHPAAQNRFLYVGGALHALPTGLRGLLRPSPPFSKPLFWAGLRELTKPRGKEPDETVHSFAQRRLGPEVASLAMDSLCRGVFAGNSRELSIRSCFPSLFQAEQTHRSILLGLLLGAGRTPQPDSALIRQALAERWSQWSLRGGLEMLPQALETHLTSRGVSVLRGQPVCGLSLQAEGRWKVSLRDSSLEADHVISAIPASVLSELLPAEAAPLARALSAITAVSVAVVNLQYQGAHLPVQGFGHLVPSSEDPGVLGIVYDSVAFPEQDGSPPGLRVTVMLGGSWLQTLEASGCVLSQELFQQRAQEAAATQLGLKEMPSHCLVHLHKNCIPQYTLGHWQKLESARQFLTAHRLPLTLAGASYEGVAVNDCIESGRQAAVSVLGTEPNS
Question: Which results are given for B8?
Answer: High concentration herbicide tolerance (Arabidopsis plants): no; Herbicide tolerance (Arabidopsis plants): no
